Data published in patent US20200024330A1.

Columns and labels:
Assay in all cases: cell-based or functional assay
[1] = target: HIV-1 Env of isolate 98CN009 (subtype CRF07_BC), on pseudovirus (HIV-1)
[2] = target: HIV-1 Env of isolate MG RM-A-007 (pseudovirus) (HIV-1)
[3] = target: HIV-1 Env of isolate MGRM-D-001 (subtype D), on pseudovirus (HIV-1)
[4] = target: HIV-1 Env of isolate MG RM-A-013 (pseudovirus) (HIV-1)
[5] = target: HIV-1 Env of isolate MG RM-A-011 (pseudovirus) (HIV-1)
[6] = target: HIV-1 Env of isolate MG RM-A-009 (pseudovirus) (HIV-1)
[7] = target: HIV-1 Env of isolate MG RM-A-014 (pseudovirus) (HIV-1)
[8] = target: HIV-1 Env of isolate MG RM-A-006 (pseudovirus) (HIV-1)
[9] = target: HIV-1 Env of isolate 92RW008 (clade A), on pseudovirus (HIV-1)
[10] = target: HIV-1 Env of isolate 92WR020 (pseudovirus) (HIV-1)
[11] = target: HIV-1 Env of isolate 92WR024 (pseudovirus) (HIV-1)
[12] = target: HIV-1 Env of isolate MGRM-D-003 (subtype D), on pseudovirus (HIV-1)
[13] = target: HIV-1 Env of isolate 92WR021 (pseudovirus) (HIV-1)
[14] = target: HIV-1 Env of isolate MGRM-D-002 (subtype D), on pseudovirus (HIV-1)
[15] = target: HIV-1 Env of isolate VLGCA1 (pseudovirus) (HIV-1)
[16] = target: HIV-1 92TH021 Env (pseudovirus) (HIV-1)
[17] = target: HIV-1 Env of isolate MGRM-F1-021 (clade F), on pseudovirus (HIV-1)
[18] = target: HIV-1 envelope glycoprotein (Env) of isolate 92BR020, on pseudovirus (HIV-1)
[19] = target: HIV-1 JR-CSF Env K305A (HIV-1 JR-CSF) (UniProt P20871)
[20] = target: HIV-1 Env of isolate Du172 (HIV-1)
[21] = target: MuLV envelope protein (control pseudovirus) (MuLV)
[22] = target: HIV-1 94UG103 Env (clade A pseudovirus) (HIV-1)
[23] = target: HIV-1 92UG024 Env (clade D pseudovirus) (HIV-1)
[24] = target: HIV-1 MGRM-A-010 Env (clade A pseudovirus) (HIV-1)
[25] = target: HIV-1 MGRM-AG-005 Env (clade AG pseudovirus) (HIV-1)
[26] = target: HIV-1 APV17 Env (clade B pseudovirus) (HIV-1)
[27] = target: HIV-1 Env of isolate MGRM-C-028 (clade C) (HIV-1)
[28] = target: HIV-1 Env of isolate MGRM-AG-005 (clade AG) (HIV-1)
[29] = target: HIV-1 Env of isolate 93UG077 (clade A) (HIV-1)

Chain of 1443_C16 (PG16) (TCN-116) (antibody) (VH): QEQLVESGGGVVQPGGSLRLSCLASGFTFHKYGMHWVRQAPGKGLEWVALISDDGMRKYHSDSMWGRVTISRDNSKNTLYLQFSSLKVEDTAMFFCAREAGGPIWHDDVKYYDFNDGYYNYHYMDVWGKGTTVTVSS
Chain of 1443_C16 (PG16) (TCN-116) (antibody) (VL): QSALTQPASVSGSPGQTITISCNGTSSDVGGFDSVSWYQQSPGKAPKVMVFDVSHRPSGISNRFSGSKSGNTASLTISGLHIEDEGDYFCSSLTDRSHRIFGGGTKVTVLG

VRC01 (antibody)
IC50, pseudovirus neutralization [1]: 0.346 µg/mL | IC50 (µg/mL), pseudovirus neutralization [2]: 12.6 µg/mL | IC50, pseudovirus neutralization [3]: > 50 µg/mL | IC50 (µg/mL), pseudovirus neutralization [4]: 0.152 µg/mL | IC50 (µg/mL), pseudovirus neutralization [5]: 0.273 µg/mL | IC50 (µg/mL), pseudovirus neutralization [6]: 0.118 µg/mL | IC50 (µg/mL), pseudovirus neutralization [7]: 0.135 µg/mL | IC50 (µg/mL), pseudovirus neutralization [8]: 0.521 µg/mL | IC50, single-round pseudovirus neutralization [9]: 0.037 µg/mL | IC50 (µg/mL), pseudovirus neutralization [10]: 0.13 µg/mL | IC50 (µg/mL), pseudovirus neutralization [11]: 0.327 µg/mL | IC50, pseudovirus neutralization [12]: 2.06 µg/mL | IC50 (µg/mL), pseudovirus neutralization [13]: 0.066 µg/mL | IC50, pseudovirus neutralization [14]: 0.252 µg/mL | IC50 (µg/mL), pseudovirus neutralization [15]: 0.163 µg/mL

5141_B17 (PGT-126) (antibody)
IC50 [16]: 0.115 µg/mL | IC80 [16]: 1.62 µg/mL | IC90 [16]: 6.91 µg/mL | IC95 [16]: > 10 µg/mL

PGV04 (antibody)
IC50 (µg/mL), single-round pseudovirus neutralization [17]: 0.031 µg/mL | IC50, pseudovirus neutralization [18]: 0.25 µg/mL

PGT-121 (antibody)
Fold IC50 increase relative to wild-type [19]: 1.9 fold

1443_C16 (PG16) (TCN-116) (antibody)
IC50, pseudovirus neutralization (TZM-bl) [20]: < 0.01 µg/mL | IC50, pseudovirus neutralization (TZM-bl), control virus [21]: > 25 µg/mL

4877_D15 (PGT-122) (antibody)
Neutralization by PGT-122, IC50 [22]: 1.46 µg/mL | Neutralization by PGT-122, IC80 [22]: 6.58 µg/mL | Neutralization by PGT-122, IC90 [22]: > 10 µg/mL | Neutralization by PGT-122, IC95 [22]: > 10 µg/mL | Neutralization by PGT-122, IC50 [23]: > 10 µg/mL | Neutralization by PGT-122, IC80 [23]: > 10 µg/mL | Neutralization by PGT-122, IC90 [23]: > 10 µg/mL | Neutralization by PGT-122, IC95 [23]: > 10 µg/mL | Neutralization by PGT-122, IC50 [24]: 1.68 µg/mL | Neutralization by PGT-122, IC80 [24]: > 10 µg/mL | Neutralization by PGT-122, IC90 [24]: > 10 µg/mL | Neutralization by PGT-122, IC95 [24]: > 10 µg/mL | Neutralization by PGT-122, IC50 [25]: > 10 µg/mL | Neutralization by PGT-122, IC80 [25]: > 10 µg/mL | Neutralization by PGT-122, IC90 [25]: > 10 µg/mL | Neutralization by PGT-122, IC95 [25]: > 10 µg/mL | Neutralization by PGT-122, IC50 [26]: 0.522 µg/mL | Neutralization by PGT-122, IC80 [26]: 1.76 µg/mL | Neutralization by PGT-122, IC90 [26]: 3.58 µg/mL | Neutralization by PGT-122, IC95 [26]: 6.92 µg/mL

5147_N06 (PGT-130) (antibody)
neutralization IC50 [27]: > 10 µg/mL | neutralization IC80 [27]: > 10 µg/mL | neutralization IC90 [27]: > 10 µg/mL | neutralization IC95 [27]: > 10 µg/mL | neutralization IC50 [28]: 0.947 µg/mL | neutralization IC80 [28]: > 10 µg/mL | neutralization IC90 [28]: > 10 µg/mL | neutralization IC95 [28]: > 10 µg/mL | neutralization IC50 [29]: > 10 µg/mL | neutralization IC80 [29]: > 10 µg/mL | neutralization IC90 [29]: > 10 µg/mL | neutralization IC95 [29]: > 10 µg/mL
